Results: paper PMC7160556

Experiments:
[1] = molecular target: T1, endogenous 14-3-3ζ (YWHAZ) (human (endogenous in A549)), P63104; test: native gel or EMSA; settings: remark: other sources report otherwise
T1 chain: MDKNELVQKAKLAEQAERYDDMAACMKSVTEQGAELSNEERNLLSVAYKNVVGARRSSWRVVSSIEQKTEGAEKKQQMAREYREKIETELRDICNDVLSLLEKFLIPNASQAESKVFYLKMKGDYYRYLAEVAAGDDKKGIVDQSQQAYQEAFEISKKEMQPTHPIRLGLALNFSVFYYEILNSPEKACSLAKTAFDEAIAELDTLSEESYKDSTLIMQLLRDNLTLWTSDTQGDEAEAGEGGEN

[2] = molecular target: T2, untagged 14-3-3ζ, overexpressed, P63104; test: native gel or EMSA; settings: remark: other sources report otherwise
T2 chain: T1 chain

B1: endogenous 14-3-3ζ (YWHAZ), P63104 1-245 (natural protein)
chain: T1 chain
Question: With B1 as the binder, how does the stoichiometry N [1] read?
Answer: 2

B2: untagged 14-3-3ζ, overexpressed, P63104 1-245 (natural protein)
chain: T1 chain
Question: With B2 as the binder, how does the stoichiometry N [2] read?
Answer: 2
